# Tested on: fusion protein SFH (SAK-GSIEGR-HV2)
substance,measurement,value
blood coagulant factor FXa,Anticoagulant activities (clot method) after cleavage of SFH with 0.2 U of FXa for 10 min at 37° C.,2560 ATU
